Measured values as given in article PMC4794788, “Cell‐free synthesis of isotopically labelled peptide ligands for the functional characterization of G protein‐coupled receptors” (FEBS Open Bio, 2015).

Experiments:
C5aR = C5aR in native human tissues; literature comparison; cited from earlier work
Protocol: Table 1 Binding parameters of cell‐free synthesized radioligands | column: Literature KD [nM] || As the interaction between C5a and its receptor is mainly mediated by the disulphide bridged core region of C5a (residues 21–55, 22) and the C‐terminal region (especially Arg^74 30) the N‐terminal hexa‐histidine tag was not removed. The cell‐free synthesized ligand binds to the complement 5a receptor with a dissociation constant of 1.18 ± 0.27 nM (Fig. 4A), which corresponds to values determined by Gerard and Gerard for C5aR in native human tissues (1 nM 31, Table 1). Competition experiments with the unlabelled small molecule inverse agonist NDT 9513727 and the peptide antagonist H2N‐ChaW resu ...

[1] = target: T1, human complement 5a receptor (C5aR) (Homo sapiens, UniProt P21730); test: Saturation radioligand binding of [^3H]‐C5a^CF to C5aR in Sf9 membranes; details: radioligand 31 pM‐8 nM; human C5aR coproduced with Gαi2, Sf9 membranes (10–50 μg total protein); 120 min, room temperature; 50 mM Hepes‐NaOH pH 7.4, 5 mM MgCl2, 1 mM CaCl2, 0.5% BSA, 75 mM NaCl; nonspecific: 50 μM H2N‐ChaW; filtration, scintillation counting; means ± SEM from three or two independent experiments in triplicate; read-out: KD (dissociation constant)
T1 construct: 10x His (N); FLAG (N); StrepII (C); made in house; host or cells: Sf9 insect cells (recombinant baculovirus, pOET5 / flashBAC); membrane preparation
T1 sequence (P21730 1-350): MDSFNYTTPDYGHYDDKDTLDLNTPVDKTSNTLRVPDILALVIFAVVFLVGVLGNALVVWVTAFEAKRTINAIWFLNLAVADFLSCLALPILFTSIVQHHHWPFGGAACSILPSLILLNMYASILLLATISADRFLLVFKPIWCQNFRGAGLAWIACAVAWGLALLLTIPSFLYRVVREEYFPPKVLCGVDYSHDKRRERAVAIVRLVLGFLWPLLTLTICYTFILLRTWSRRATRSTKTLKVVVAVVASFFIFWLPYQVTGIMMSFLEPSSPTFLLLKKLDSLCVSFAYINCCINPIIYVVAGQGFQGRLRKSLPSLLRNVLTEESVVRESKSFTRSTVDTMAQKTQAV
Description: The complement 5a receptor was coproduced with Gαi2 in Sf9 insect cells. The cDNA encoding the human complement 5a receptor flanked by an N‐terminal 10x His and FLAG tag and a C‐terminal StrepII tag was cloned into the pOET5 transfer vector (Oxford Expression Technologies, Oxford, UK). pOET5 contains two expression cassettes, the receptor is expressed under the control of a polyhedron promoter; Gαi2 expression is regulated by a p10 promoter. Recombinant baculoviruses were generated with the flashBAC protein expression system (Oxford Expression Technologies) according to manufacturer's instructions. […] Total membrane protein content was determined by the bicinchoninic acid (BCA) method using bovine serum albumin as the standard.
For the determination of binding parameters, membranes containing the respective receptors (10–50 μg total membrane protein) were incubated with cell‐free synthesized tritium‐labelled ligands in varying concentrations. Binding was terminated by rapid filtration over glass fibre filters pretreated with 0.3% polyethyleneimine using a Brandel harvester (Brandel, Alpha Biotech Ltd, Killearn, UK) and analysed by liquid scintillation counting. […]
Data are represented as means ± SEM from three or two independent experiments performed in triplicate and analysed in […] […]

B1: [^3H]‐C5a^CF: cell‐free‐synthesized tritium‐labelled complement 5a with N‐terminal hexa‐histidine tag; contains three proline residues (protein, UniProt P01031 678-751, looked up)
C5a anaphylatoxin: TLQKKIEEIAAKYKHSVVKKCCYDGACVNNDETCEQRAARISLGPRCIKAFTECCVVASQLRANISHKDMQLGR
modifications: C5a anaphylatoxin tritium label
Kd (C5aR): 1 nM
Kd [1]: 1.18 ± 0.27 nM
